According to PMC3088709, “Phosphorylation of the Yeast γ-Tubulin Tub4 Regulates Microtubule Function” (PLoS ONE, 2011):

B1: Tub4 (yeast gamma-tubulin), wild type, untagged [S. cerevisiae] / Spc97-3HA [S. cerevisiae] (parent complex)
chain 1: MGGEIITLQAGQCGNHVGKFLWSQLAKEHAIGTDGLSQLPDSSTERDDDTKPFFRENSRNKFTPRAIMMDSEPSVIADVENTFRGFFDPRNTWVASDGASAGNSWANGYDIGTRNQDDILNKIDKEIDSTDNFEGFQLLHSVAGGTGSGLGSNLLEALCDRYPKKILTTYSVFPARSSEVVVQSYNTILALRRLIEDSDATVVFDNASLLNISGKVFRNPNIDLQHTNQLISTIISSVTNSIRFPSYMYSSMSSIYSTLIPSPELHFLSPSFTPFTSDYIHDDIAHKGHSSYDVMLDLLDPSNSLVSTAMNNPTYFNVYNTIIGNVEPRQISRAMTKLQQRIKFPSWSSSAMHVNIGRRSPYLPLQPNENEVSGMMLSNMSTVVNVFENACNTFDKVFAKGAFLNNYNVGDLFQSMQNVQDEFAESREVVQSLMEDYVAAEQDSYLDDVLVDDENMVGELEEDLDADGDHKLV
chain 2: MEIKEVDDRAELLRYTNNIPLLGKLVNHQPLWSTNPKLKSFSLEKISAPDQRRVQEALVVKDLLNVLIGLEGTYIRYFNDYEPSDPETPIEFKIAKKMDPSFKTFSRRIVRYGKQYMILTRAYEKWSDTSFGMVLQRFAYEIRRFLEDVYLKTLVERLERDFNKVPNFSIRELEQIINETEVNKQMELLYNIYEEIFREIEERRTNQSSQEDFNNFMDSMKNESSLHLRLMVAFDTTVYPVPKGGAILKIFQQKILENLGDRSSVMFLKKLLNNISQDYCTMLYEWLTQGILNDPYQEFMTYDDLEGKTDNIFDTRDRAWDTQYFIRKDVLLRDCDSEEDKNLLFKMLRTGILLKVVRASLQIPTIPSNSSDITIQEINDFADLMEGSNLELYVDKCYSRANEIFLKLFFQGYDLINVLKHLQQIFLGYQSGHNVLKFLTKNMGELTKHYRNDNNANYDKLLQNFELERQSENPNNLMRQLLMIQFDTETLPQVLSHYLQIYPEVPENNSANDDSDPLMHANNFKNMNAILFDELSKERTGAYHGSNLELYTPKSAIYHLKFDINIPYPLNIIISRTCMIKYQIILRYQLVLQYHSRLLDETWMDLNKTPSWKYRGYSHTVKRRIVRATRVLHAKMNHFIKTIMEYFNQNVIDKEVYSLEKCYRNPTLAVAIQNELEGGLTNIMTNRCLSDLIPLQLQIFDIVYKFCKFIKSMRAKLCQLDPVLYEKHKSGMMKTLNEGYRTNNGGQEDVGYQEDAALELIQKLIEYISNASSIFRKCLINFTQELSTEKFDFYDSSSVDAAGIERVLYSIVPPRSASASSQR

Variants of: B1
Experiment: co-immunoprecipitation (anti-HA IP of Spc97-3HA), quantified immunoblot; TUB4-AID SPC97-3HA cells, IAA for 2 h at 30°C; normalized to precipitated Spc97-3HA; parent: 1; read off a plot

Row | ratio to parent | Variant
1 | ~0.41 | chain 1 S360D
2 | ~0.63 | chain 1 S100E
